In patent publication US20210162014A1 (CASE WESTERN RESERVE UNIVERSITY, published 2021):
Several values for one entry are separate records, joined by “and”; a condition that tells them apart may be missing. Equal entries are not always repeated. One block for each molecule: values may come before it. Bridges are numbered along the chain shown (N, C = ends). Where no end group is shown, it is not given here.

What was measured:
[1] = target: B isoform of the insulin receptor (UniProt P06213); test: receptor affinity (method not described), relative to wild-type human insulin
[2] = target: T1, A isoform of the insulin receptor (UniProt P06213-2 28-1370, limits assumed); test: as above
T1 construct: Isoform A is the short isoform lacking exon 11; also called IR-A

[3] = target: IGF Type I receptor (IGF-1R) (UniProt P08069); test: receptor affinity (method not described), relative to wild-type insulin
[4] = substrate: B isoform of the insulin receptor (UniProt P06213); test: receptor-binding affinity assay (method not described), relative to wild-type human insulin
[5] = target: T1, A isoform of the insulin receptor; test: receptor-binding affinity assay (method not described; data not shown), relative to wild-type human insulin

- affinity relative to wild-type human insulin (percent) [1]: 10 to 150%
- affinity relative to wild-type human insulin (percent) [2]: 10 to 150%
- fold reduction in affinity relative to wild-type insulin [3]: 10 fold
Molecule: 59-mer SCI with C domain EEGSRRSR ('this SCI' of paragraph 30) (ligand)

- fold reduction in affinity relative to wild-type human insulin [4]: 5 fold and 10 fold
- affinity relative to human insulin (percent) [5]: 120 percent
B1: 4SS 81-04 (57mer single-chain insulin analogue containing a fourth disulfide bridge between residues B4 and A10) (ligand)
chain: FVNCHLCGSHLVEALYLVCGERGFFYTDPTEEGPRRGIVEQCCHSCCSLEQLENYCN
modifications: disulfide 19-56, 4-46, 42-47, 7-43
notes: Single-chain insulin analogue, 57 residues, C domain EEGPRR; also called analogue 4SS 81-04
